Measured values published in patent publication US20160320385A1.

What was measured:
[1] = biological target: monoclonal antibody (moAb) G12; assay: competitive ELISA with G12-HRP on a plate coated with Sigma gliadin
[2] = biological target: 33-mer peptide from alpha-2 gliadin; assay: immunochromatographic strips based on G12 moAb (GlutenTox stick); 33-mer peptide after digestion
[3] = biological target: PWG gliadin (intact, undigested) (wheat); assay: immunochromatographic strips based on G12 moAb (GlutenTox stick); gliadin
[4] = biological target: PWG gliadin after gastric and intestinal digestion (pepsin, then trypsin and chymotrypsin); assay: immunochromatographic strips based on G12 moAb (GlutenTox stick); hydrolyzed gliadin
[5] = biological target: 33-mer peptide from alpha-2 gliadin; assay: immunochromatographic strips based on G12 moAb (GlutenTox stick); untreated 33-mer peptide

33-mer peptide from alpha-2 gliadin, sequence (peptide, as listed by the source): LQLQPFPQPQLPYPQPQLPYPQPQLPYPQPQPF

Substance | concentration of 33-mer (33-mer equivalents) [1] | detection limit [2] [ng/mL] | detection limit [3] [ng/mL] | detection limit [4] [ng/mL] | detection limit [5] [ng/mL]
PWG gliadin after gastric digestion (pepsin) | 24.5 ng 33-mer/ng | – | – | – | –
PWG gliadin (intact, undigested) | 21.6 ng 33-mer/µg | – | – | – | –
PWG gliadin after gastric and intestinal digestion (pepsin, then trypsin and chymotrypsin) | 7.5 ng 33-mer/µg | – | – | – | –
monoclonal antibody (moAb) G12 | – | 0.5 | 30 | 50 | 0.5
